Data as given in patent publication US20210355238A1.

Experiments:
[1] = target: Antigen A (multivalent high molecular weight protein); experiment: Biacore SPR at 25°C; mAb captured on anti-human Fc (236.5±1.0 RU), Antigen A injected at 100 nM
[2] = target: Antigen B (monomeric lower molecular weight protein); experiment: Biacore SPR at 25°C; mAb captured on anti-human Fc (236.1±0.8 RU), Antigen B injected at 90 nM

Antigen A bound - 100 nM (RU) [1]: 18 RU
Antigen B bound - 90 nM (RU) [2]: 7 RU
Substance: isotype control antibody (CI)
